Results published in EP4442275A1, “ANTI-TYPE II COLLAGEN ANTIBODIES” (ModiQuest B.V., priority 2023, dated 2024).
Entries after “also recorded” stand apart in the source; their conditions may differ.

B1: [^111In]In-DTPA-MQ4.112hz_3_1: MQ4.112hz_3_1 conjugated with DTPA and labeled with 111In (conjugate)
VH: DVQLQESGPGLVKPSETLSLTCAVSGYSITSDYYWHWIRQFPGKGLEWMGYISYDGSNNYNPSLKSRVTISVDTSKNQFSLKLSSVTAADTAVYYCARDDDAMDYWGQGTLVTVSS
VL: DIQMTQSPSSLSASVGDRVTITCRASQDISNYLNWYQQKPGKAPKLLIYYTSRLHSGVPSRFSGSGSGTDFTFTISSLQPEDIATYYCQQGNTLPPTFGQGTKVEIK
B2: DTPA-IrDye 800CW anti-COLL II (MQ4.112 hz3_1): MQ4.112hz_3_1 dually conjugated with DTPA and IrDye 800CW, substitution ratio IrDye 800CW= 1.83 (conjugate)
VH: B1 VH
VL: B1 VL

Tests used:
human cartilage explants [1] = target: T1, human cartilage explants (Homo sapiens, UniProt P02458); assay: Binding of 111In-labeled DTPA-conjugated antibodies to human cartilage explants (gamma counting); settings: Figure 8
T1 construct: From surgical waste material obtained after total knee arthroplasty; from tissue; host or cells: human articular cartilage from joint replacement surgery of OA patients

human cartilage = target: T2, human cartilage (Homo sapiens, UniProt P02458); assay: Ex vivo binding to human cartilage with different stages of OA-induced damage (Odyssey CLX imaging)
T2 construct: From surgical waste material obtained after total knee arthroplasty; from tissue; host or cells: human articular cartilage from joint replacement surgery of OA patients
Protocol: From surgical waste material obtained after total knee arthroplasty (Patient number SMK1180), human cartilage from the macroscopically preserved, medium damage and severe damaged regions were isolated with a surgical blade. Human cartilage explants were overnight incubated in DMEM/F12 without FBS supplemented with 10.000 U/mL penicillin/streptomycin at 37°C with 5% CO2. Punches (6 mm) were generated using a biopsy punch. Three explants/damage condition were divided over sterile FACS tubes and exposed 4 µg/ml DTPA-IrDye 800CW isotype (2.201a) (substitution ratio IrDye 800CW= 1.54) or DTPA-IrDye 800CW anti-COLL II antibody (MQ4.112 hz3_1) (substitution ratio IrDye 800CW= 1.83) in DMEM/F12 media supplemented with 0.5% BSA (final volume was 1 ml) for 4 H on a roller at 37°C. After this incubation the samples were transferred to 50 ml falcon tubes (1 tube/condition, 3 punches/tube) and washed with PBS (50 ml) at 37°C (1x 30 min), followed by an o/n wash with PBS on a shaker at 4°C.
The explants were transferred to the bottom of wells of a 96-well plate to measure the cartilage associated fluorescence with the Odyssey CLX near infrared imaging system (Figure 11). The cartilage was fixed in formalin for 4 H and thereafter transferred to 70% ethanol until processed/embedded in paraffin. […]

human cartilage explants [2] = target: T1, human cartilage explants; assay: Binding of DTPA-IrDye 800CW conjugated antibodies to human cartilage with or without trypsin (Odyssey CLX imaging); settings: 4 µg/ml, 4 H, 37°C; preserved regions of OA cartilage; Figure 9
Protocol: From surgical waste material obtained after total knee arthroplasty (Patient number SMK1186), human cartilage from the macroscopically preserved regions was isolated with a surgical blade, and 6 mm punches were made using a biopsy punch. Human cartilage explants were overnight incubated in DMEM/F12 without FBS supplemented with 10.000 U/mL penicillin/streptomycin at 37°C with 5% CO2. Half of the explants were incubated for 1 H with 2.5% Trypsin-EDTA in PBS at 37°C on a roller in a 50 ml falcon tube. The other half was incubated under the same conditions in PBS. The trypsin-EDTA was replaced by 1% FBS in PBS (to block the enzymatic activity of trypsin), in which the explants were incubated for 15 min. Cartilage explants were washed with PBS (3x 5 min). Three explants/condition were divided over sterile FACS tubes and exposed 4 µg/ml DTPA-IrDye 800CW isotype (2.201a) (substitution ratio IrDye 800CW= 1.54) or DTPA-IrDye 800CW anti-COLL II antibody (MQ4.112 hz3_1) (substitution ratio IrDye 800CW= 1.83) in DMEM/F12 media supplemented with 0.5% BSA (final volume was 1 ml) for 4 H on a roller at 37°C. […]
The explants were transferred to the bottom of wells of a 96-well plate to image with the Odyssey CLX near infrared imaging system. The fluorescent signal was measured in manually drawn ROI around the cartilage explants which was corrected for background signal by the software. […]

T1 sequence (P02458 182-1241 limits assumed): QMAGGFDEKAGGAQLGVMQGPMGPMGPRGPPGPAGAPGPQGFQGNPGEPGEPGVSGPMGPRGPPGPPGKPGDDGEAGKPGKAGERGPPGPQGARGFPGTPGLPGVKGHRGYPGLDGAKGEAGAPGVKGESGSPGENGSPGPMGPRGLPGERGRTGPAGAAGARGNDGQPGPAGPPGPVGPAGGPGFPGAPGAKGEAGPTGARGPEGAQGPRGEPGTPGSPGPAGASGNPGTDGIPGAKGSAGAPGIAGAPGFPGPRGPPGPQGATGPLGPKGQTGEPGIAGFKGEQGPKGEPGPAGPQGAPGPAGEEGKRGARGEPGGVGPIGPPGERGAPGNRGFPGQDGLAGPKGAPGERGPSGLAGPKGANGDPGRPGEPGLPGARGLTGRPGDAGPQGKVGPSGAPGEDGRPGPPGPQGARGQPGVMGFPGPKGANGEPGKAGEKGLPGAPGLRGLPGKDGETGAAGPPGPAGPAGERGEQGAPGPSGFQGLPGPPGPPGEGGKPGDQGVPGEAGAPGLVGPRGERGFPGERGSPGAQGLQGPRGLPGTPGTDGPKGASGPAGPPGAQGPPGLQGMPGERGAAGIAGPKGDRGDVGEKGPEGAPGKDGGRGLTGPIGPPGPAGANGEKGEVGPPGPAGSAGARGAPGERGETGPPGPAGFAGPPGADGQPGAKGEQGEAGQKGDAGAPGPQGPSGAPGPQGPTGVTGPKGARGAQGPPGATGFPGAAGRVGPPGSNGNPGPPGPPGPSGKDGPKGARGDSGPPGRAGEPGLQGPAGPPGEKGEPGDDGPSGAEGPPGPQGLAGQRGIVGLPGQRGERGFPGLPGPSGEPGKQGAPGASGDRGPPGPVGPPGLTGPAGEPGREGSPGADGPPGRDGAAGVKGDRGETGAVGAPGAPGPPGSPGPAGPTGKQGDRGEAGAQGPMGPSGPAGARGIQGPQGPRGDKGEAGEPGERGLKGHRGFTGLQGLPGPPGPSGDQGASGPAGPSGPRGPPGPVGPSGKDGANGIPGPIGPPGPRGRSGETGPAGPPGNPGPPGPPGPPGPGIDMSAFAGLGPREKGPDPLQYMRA
T2 sequence (P02458 182-1241 limits assumed): as above

Molecule	cartilage associated radioactivity corrected for their weight, trypsin-damaged human cartilage compared to non-treated explants (human cartilage explants [1]; 4 µg/ml, 1.5 H, 37°C)	cartilage associated radioactivity/gram in trypsin-damaged human cartilage compared to isotype (human cartilage explants [1]; p<0.001, One-way ANOVA)	localization of the fluorescent signal in sections of the explants (human cartilage; Figure 11 bottom, compared with SafO staining)	binding (fluorescent signal) to cartilage when OA-damage increases (human cartilage; macroscopically preserved, medium damage and severe damaged regions, 4 µg/ml, 4 H, Figure 11, listed as DTPA-IrDye 800CW anti-COLL II antibody)	binding (fluorescent signal) to trypsin-induced damaged human cartilage explants compared to untreated explants (human cartilage explants [2])
B1	higher	higher			
B2			localizes on the spots where visible cartilage damage is present	binds more; also recorded: increases	increased binding; also recorded: increases
